Target: fusion protein containing the GS120 linker
Test: FRET or BRET

fold shift of the titration midpoint against the WT MBD2 peptide: 30 fold
Substance: V227A MBD2 peptide
